Measurements as given in the DeepSol protein solubility set.

assay: soluble on expression in E. coli; label from the status in PepcDB or PDB records

Sequence	soluble on expression in E. coli
MSLKHLGQTRSALHGSHAVITPETFVRTALAEWPGSAIVLHIAPVVGLGARFVQFTAEMPAGAQATESVYQRFAFVLSGEVDVAVGGETRTLREYDYVYLPAGEKHMLTAKTDARVSVFEKPYQTVEGVQAPGVYWGNERENPGYPFEGDDHLIARKLLPDEPAFDFMVSTMSFAPGASLPYAEVHYMEHGLLMLEGEGLYKLEENYYPVTAGDIIWMGAHCPQWYGALGRNWSKYLLYKDMNRHPLEGGSHHHHHH	soluble
MSLKIERLNIIVTCPGRNFVTVKIVTDEGVHGLGDATLNGRELAVRAYLEDHVFPCLIGRDPRDIEDIWQYLYRGAYWRRGPVTMTAIAAIDMALWDIKSKLAGMPVYQLLGGKSREGLMVYGHANGRDHDEAIDAAHRHIAAGYRAIRVQSGVPGLAKVYGVGKTAGAYEPAEKGLPPEEPWDTALYLRHTPELFRKVRDALGDAPHLLHDAHHRLTPIEAARLGRDLEPYRLFWLEDATPAENQDAFRLIRSHTTTTLAVGEVFNSIWDCKDLIRDQLIDYIRATIVHAGGITHVRRIADYAAMYQVRTGFHGATDLSPVCMAAAVNFGLWAPNFGIQELMPHTALTDEVFPHNYRFDDGYLVMDDVPGLGVDIDETLAANYPYERAYLPVARLRDGSMWNWEGHHHHHH	not soluble
MSLKIFPSSSIKKLDAYTIEHEPIASIDLMERAAQALTKAITERWDITTPVTVFAGPGNNGGDALAVARMLAEKEYKVEAYLFNPKGELSADCQTNKELVEMMDNVKFSEVSTQFVPPTLTMDHLVVDGLFGSGLNKPLSGGFAAVVKYINASPATVVAIDIPSGLMGEENTFNVKANIIRAQLTLSLQLPKLAFLFAENSEFVGEWKLLDINLSREAIEETESNYALLEAEEIHALIKPRNTFSHKGNFGHALLIAGSYGMAGASILAARACMRSGVGLLTVHAPIRNNDILQISVPEAIIESDASDTYFACPTDTDDYQAVGIGPGIGRSEETEAALLEQLSGCQTPLVLDADALNILANHRHALTTLPKGSILTPHPKELERMVGKCQNSYERLMKACELARTAKVHIILKGAYSAIITPSGKCYFNSTGNPGMATAGSGDVLTGVVLALLAQGYPAEEAAKIGTYVHGLAGDFARKKQGVISMTAGDIISNLPLAWRLVSEGHHHHHH	soluble
MSLKIGKIVSVNFNQFRVKISSEIRGNSVNLAGTVYYFGNIGSYLKTTNSVGEQLICEVMSIFDSDTKLDSAAYDFDSNRELLLKPIGTITRDDRFNLGVGIFPGIYSEVNVVTFEDMELILQTGKDKELSKAIHQSFFLGESKNLINYPIDISINSFFNIHSAVLGNSGSGKSNTIAHIIQEIHKKKNNSAIGSRILIFDVNGEYKNAFTGHEISPYIKVRLLKPNIEATEDGVEPFYLPHFLMNIDEWSSFLMATDATQRPFWDKVLQESYKFYMIATHEGDDRQKLINYLRFKICNLIHILQAQGDSDTAIITTAQGILYGILTLIEMDDDLQRACQQEGVLQDLHDLNASEGHHHHHH	not soluble
MSLKILITGSNGLLGQKLVSLLYLKPEITLIATARGANRDEIYEDYIYESMDITSEENVLKVFRKHKPDAVIHTAAMTHVDQCELNKEACVDQNITSVKHIVKACKEVGAFLLHVSTDFIFDGTRGPLTEEEIPNPVNYYGWTKWEAEKAVENSGLKWAIARTVLVFGVVQDMSRSNIVLWVKNNLEQKKEINVVNDQWRTPTLAEDLAMGCWLIVKNQAEGIFNISGEEMLSPYELAHKVADVWKLDKGLIKQADSSTFTQPALRPPKTGFIIDKAKKQLGYKPHTLEEGLDLLKEQLTEGHHHHHH	soluble
MSLKILTIVVMSGNVISLNRPSANAAIRLGFTYEGRFRNHAIYKGRSRDTDWFSIIDSEWPVLKKRFENWLSPENFDEQGQQKRSLRDC	not soluble
MSLKITDVQLTAIGMPRLTGFVNKHVIVQLFTDEGIEGIGEMSDFSHLPKYAVDIVDLERTLKQILVGKNPFDIAPINTELNGNFPEAMYYYEKGSFIRNGVDTALYDLCAKALGVSVSDLLGGRQREKIKVCFPIFRHRFMDEVEANLELVKKQYEKGFDVFRLYVGKNVDADEAFLAGVYNEFGGKVKVKSLDFSHLLDWKEALRITRRLAKYPIDLVESPALRNDFAGLHHFRMRCELPVSEHVWSLRQQSEMIKHDSVDIFNIAPVFIGGITQARKAADAAAVAEKSVLIGTTQELSIGTTAMAYFGSTLDHLNYISDPTGPELYVGDVVKNKVNYENGYLHLPERSTIGLGMELDWEKVEQYRVESLNWEDVSVHQLQDRTAQTRAEGHHHHHH	soluble
MSLKITSIAVYQVDLPLREGNYAWSEGKSVSVFDSTVVRIETDSGIFGHGEVCPLGPVYLPAYAAGVRTGVAEIAPALIGDDPTELGKLNRKMDYLLKGHPYVKSALDVACWDIFGQAAGLPICTLLGGRYGEDFTLYRAISQRPAAEMAESVAMYRGEGYRRFQLKVGGDPNEDILRIFEAAEMLEPGDKLIADANTGWLKHEALRVVNAVRDVDVYIEQPCPSYEDCRAIRERTTLPFILDEVIDSVDMIVRCAADRAADVVNLKISKLGGLTKARQARDLCASLGLAMTIEDSWGGDIVTAAIAHLAHSTPTDYLFSSTDFNSYVTKSIADGAPQRDNGRLAAAREPGLGVKPKLDVLGKPVATYGKEGHHHHHH	soluble
MSLKITTEQVCEALDTWVCRPGMTQEQATILITEAFWALKERPNIDVQRVTFNDGEVDQRALGVNRVKIFERWKAIDTRDKRDKFTALIPAIMEAIRISDFRLYCEITDGKSITYMIAGLNKEYGDVVESGLLFADPVVVERETDELIEKAIAFKHAYRQQYQYYFADKQMSARGAYEYRCTTMGEGHHHHHH	soluble
MSLKIWGRKNSSNVRKALWIAHELGLDFESIDAGGAFGVVNEPHYRARNPNGLVPMLEDGDLTLWESNTIVRYLCAEYGTEQGWYLADPRQRALADKWMDWTTSSFATPFRPLFWGLLRTPEDQRDWVAINAAHKQCAQLLAIADETLASQPYLSGDQIGMGDIPLGSFIYAWFELPIERPDMYHLQAWYERLKQRPAYQAAVMTALTEGHHHHHH	soluble
MSLKKALFLILDQYADWEGVYLASALNQREDWSVHTVSLDPIVSSIGGFKTSVDYIIGLEPANFNLLVMIGGDSWSNDNKKLLHFVKTAFQKNIPIAAICGAVDFLAKNGLLNNHSHTGNFVYLWKDYKQYKPISSFVEKQAVRDKNLVTANGTAPIEFTNLILEMIDFDTPENIEKMMYMNRYGFYHFCDKYGNPFVEGHHHHHH	soluble
MSLKKLIAVAVLSACGSLAHANTNIPNYNTDAHLYEFTQTYDLVVPKGSQGQTNLWVPLPFNGEYQQVKSIHFEGNYMNAYVTENNKYGAKTLFATWNKDAQKRDLKVMMVIETKDREPMVKGALENYTPPKDIQYSVDVQEYLKATPHIKTDGIVKEFPDKILGKETNPLKKAELIHHWFVKNMERDNSVLGCGDGDVEKILTTGVLKGKCTDINSVFVALARAAGIPAREIFGIRLGAAEKMGKYSKGAFGSANEQGIANVSGGQHCRAEFYLAGFGWVPVDSADVAKMRLAEKKSVEDKDTQAVAKYLFGNWEANWVGFNHARDFDLYPQPELAPINNFGYPYAEVGGDPLNSFDPKEFKYDYVSKKLEGGSHHHHHH	soluble
MSLKKQPLAYRMRPSNIDEVIGQQHLVGEGKIIRRMVDAGQLSSMILYGPPGVGKTSIAQAIAGSTDTHYKLLNAVVNNKKDMEIVVEEAKMSGQLILILDEVHRLDKGKQDFLLPHLEKGLLILIGATTANPFHSINPAIRSRCQIFELTPLTTDEIKVALTRALTDKTHGLGEEPVVISDEALAHFAFACGGDVRSALNGLELAVRSTQPNVKGEKEITLSVAEECIQRKSFHHDKDGDAHYDVLSAFQKSIRGSDVNAALHYLARLIEAGDLVSIGRRLLVIAYEDIGLANPQAGPRTLAAIEAAERLGFPEGRIPLANAVVELCLSPKSNSAYVALDAAIADIRKGHVGSVPAHLKDAHYKGAEQLGRGIGYKYPHDYERGWVKQQYLPDSLKSRAYYEPKRTGKFEDALADVYEKLRKSTFSEGHHHHHH	soluble
MSLKKYTMNEMVDITKDMLNKRGVMIEDIARIVQKLQEKYNPNLPLSVCMENVEKVLNKREIIHAVLTGLALDQLAEQKLLPEPLQHLVETDEPLYGIDEIIPLSIVNVYGSIGLTNFGYLDKEKIGIIKELDESPDGIHTFLDDIVAALAAAAASRIAHTHQDLQDEEKEQDEKPVVSEGGSHHHHHH	soluble
